Assay results taken from patent publication US20120141441.

Tested on: Cre recombinase (bacteriophage P1 ?)
Assay: cell_activity
Conditions: excision of reprogramming cassette in iPSC; typically 50% or more of clones; verified by Southern blot and PCR

loxP sites flanking reprogramming cassette (p4FLR)
activity (% clones with EGFP loss): > 50
